experiment: label from the status in PepcDB records
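Also: failed if final PepcDB status was selected cloned or expressed and not failed if soluble or beyond.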

| Sequence | protein production |
| --- | --- |
| MSLASLIGLAVCTGNAFSPALAAEAKQPNLVIIMADDLGYGDLATYGHQIVKTPNIDRLAQEGVKFTDYYAPAPLSSPSRAGLLTGRMPFRTGIRSWIPSGKDVALGRNELTIANLLKAQGYDTAMMGKLHLNAGGDRTDQPQAQDMGFDYSLANTAGFVTDATLDNAKERPRYGMVYPTGWLRNGQPTPRADKMSGEYVSSEVVNWLDNKKDSKPFFLYVAFTEVHSPLASPKKYLDMYSQYMSAYQKQHPDLFYGDWADKPWRGVGEYYANISYLDAQVGKVLDKIKAMGEEDNTIVIFTSDNGPVTREARKVYELNLAGETDGLRGRKDNLWEGGIRVPAIIKYGKHLPQGMVSDTPVYGLDWMPTLAKMMNFKLPTDRTFDGESLVPVLEQKALKREKPLIFGIDMPFQDDPTDEWAIRDGDWKMIIDRNNKPKYLYNLKSDRYETLNLIGKKPDIEKQMYGKFLKYKTDIDNDSLMKARGDKPEAVTWGEGHHHHHH | not failed |
| MSLASLPISNFFTFNHQSTLFTKVKNFMGVKHIGDCMKALINGTIYTSFSPVKKVSGLVISNERVLYAGDSSTALRIAELAGGEIIDLKGKFVMPAFFDSHLHLDELGMSLEMVDLRGVKSMEELVERVKKGRGRIIFGFGWDQDELGRWPTREDLDVIDRPVFLYRRCFHVAVMNSKMIDLLNLKPSKDFDESTGIVRERALEESRKIINEKILTVKDYKHYIESAQEHLLSLGVHSVGFMSVGEKALKALFELEREGRLKMNVFAYLSPELLDKLEELNLGKFEGRRLRIWGVKLFVDGSLGARTALLSEPYTDNPTTSGELVMNKDEIVEVIERAKPLGLDVAVHAIGDKAVDVALDAFEEAEFSGRIEHASLVRDDQLERIKELKVRISAQPHFIVSDWWIVNRVGEERAKWAYRLKTLSSITKLGFSTDSPIEPADPWVSIDAAVNRYVVDPGERVSREEALHLYTHGSAQVTLAEDLGKLERGFRAEYIILDRDPLKEMKGIITITTDPNSSSVDKLAAALEHHHHHH | not failed |
| MSLASYFIGVDVGTGSARAGVFDLQGRMVGQASREITMFKPKADFVEQSSENIWQAVCNAVRDAVNQADINPIQVKGLGFDATCSLVVLDKEGNPLTVSPSGRNEQNVIVWMDHRAITQAERINATKHPVLEFVGGVISPEMQTPKLLWLKQHMPNTWSNVGHLFDLPDFLTWRATKDETRSLCSTVCKWTYLGHEDRWDPSYFKLVGLADLLDNNAAKIGATVKPMGAPLGHGLSQRAASEMGLIPGTAVSVSIIDAHAGTIGILGASGVTGENANFDRRIALIGGTSTAHMAMSRSAHFISGIWGPYYSAILPEYWLNEGGQSATGALIDHIIQSHPCYPALLEQAKNKGETIYEALNYILRQMAGEPENIAFLTNDIHMLPYFHGNRSPRANPNLTGIITGLKLSTTPEDMALRYLATIQALALGTRHIIETMNQNGYNIDTMMASGGGTKNPIFVQEHANATGCAMLLPEESEAMLLGSAMMGTVAAGVFESLPEAMAAMSRIGKTVTPQTNKIKAYYDRKYRVFHQMYHDHMRYQALMQEGEGHHHHHH | not failed |
| MSLCINPQCSKPQNPDNVLFCQTCGSELLLEGRYRVVSVLGGGGFGKTFAVNDTRTQTARVLKVLINNHPKAVELFQREAQVLALLNYPGIPTVEANGYFVYFPRNIQEPMHCLIMEKIEGLDLGEYLRQRDYRPIDEKLALQWFKEVVTILHQVHQQGLFHRDIKPSNIMLRADGRLVLIDFGTARSVTGTYIAKQAVGQVTGVISAGYTPSEQINGQAVQQSDFFALGRTFIYLLTGKEPSDPTIYNYLKDELHWRDGLLSSESNSVPPTVGYGVPPTVGDRTNILPQFADLLDQMMERLPGQRPQNTHIILQRLADIEKNLHPSSPPPPKPKGWTRRRLITVVGFSSLGLTGALAISRLLPKTTVIVSQEGGGDYKTIGAAMQNAQPGMRILVRPGLYQESLVLDKALKIIGDGAKAEIIIESKGASCLVVKTDQAEIRGLTFRSRAGTENKQYFAVDISQGQIILADCDITSDSLSGIGIHGATANPVIQKCQIHDGKQSGIYLYENSRGTIEDCDLFGNTTTEITVDAAQPIIRRCKIRQDKEGGILFRNQAQGTVEDCDIFNNNLSGIEIRDSSNPIIQKCRIHDNQQGDGILVHLNGRGTVEDCNIFGNGFSGVEIRDRGNPVIRRCNINKNKYYGVYAYKNSMGTVENCDLTGNIRSAINVDETSQLQRSGNVELEHHHHHH | failed |
| MSLDCRERIEKDLELLEKNLMEMKSIKLSDDEEAVVERALNYRDDSVYYLEKGDHITSFGCITYAHGLLDSLRMLHRIIEGHHHHHH | not failed |
| MSLDIAVVGIGYVGLVSATCFAELGANVRCIDTDRNKIEQLNSGTIPIYEPGLEKMIARNVKAGRLRFGTEIEQAVPEADIIFIAVGTPAGEDGSADMSYVLDAARSIGRAMSRYILIVTKSTVPVGSYRLIRKAIQEELDKREVLIDFDIASNPEFLKEGNAIDDFMKPDRVVVGVDSDRARELITSLYKPMLLNNFRVLFMDIASAEMTKYAANAMLATRISFMNDVANLCERVGADVSMVRLGIGSDSRIGSKFLYPGCGYGGSCFPKDVKALIRTAEDNGYRMEVLEAVERVNEKQKSILFDKFSTYYKGNVQGRCVAIWGLSFKPGTDDMREAPSLVLIEKLLEVGCRVRVYDPVAMKEAQKRLGDKVEYTTDMYDAVRGAEALFHVTEWKEFRMPDWSALSQAMAASLVIDGRNVYELPADSDFTLLNIGNSAIESEGHHHHHH | not failed |
| MSLDIEQQFLNDLDNQLWRAADKLRSNLDAANYKHVVLGLIFLKYVSDAFEERQQELTELFQKDDDDNIYYLPREDYDSDEAYQQAIAEELEIGDYYTEKNVFWVPKTARWNKLRDVITLPTGSVIWQDEQGEDVKLRSVSWLIDNAFDDIEKANPKLKGILNRISQYQLDADKLIGLINEFSLTSFNNPEYNGEKLNLKSKDILGHVYEYFLGQFALAEGKQGGQYYTPKSIVTLIVEMLEPYKGRVYDPAMGSGGFFVSSDKFIEKHANVKHYNASEQKKQISVYGQESNPTTWKLAAMNMVIRGIDFNFGKKNADSFLDDQHPDLRADFVMTNPPFNMKDWWHEKLADDPRWTINTNGEKRILTPPTGNANFAWMLHMLYHLAPTGSMALLLANGSMSSNTNNEGEIRKTLVEQDLVECMVALPGQLFTNTQIPACIWFLTKDKNAKNGKRDRRGQVLFIDARKLGYMKDRVLRDFKDEDIQKLADTFHNWQQEWSEENNQAGFCFSADLALIRKNDFVLTPGRYVGAEAEEDEGHHHHHH | not failed |
| MSLDKIRYGIMSTAQIVPRFVAGLRESAQAEVRGIASRRLENAQKMAKELAIPVAYGSYEELCKDETIDIIYIPTYNQGHYSAAKLALSQGKPVLLEKPFTLNAAEAEELFAIAQEQGVFLMEAQKSVFLPITQKVKATIQEGGLGEILWVQSVTAYPNVDHIPWFYSREAGGGALHGSGSYPLQYLQYVLGKEIQEVTGTATYQQGATDSQCNLALKFAEGTLGNIFINVGLKIPSEMTICGTKGQIVIPNFWKTDCAYYTDAQGNTVKWSEQFTSEFTYEINHVNQCLQDKKLTSPVMTKELTIATVKIVESFYQEWFDNEGHHHHHH | not failed |
| MSLDMKEHPDAEVQKNQVLTLEDWKEKWVTRHISFHQEQGHQLLKKHLDTFLKGQSGLRVFFPLCGKAIEMKWFADRGHTVVGVEISEIGIREFFAEQNLSYTEEPLAEIAGAKVFKSSSGSISLYCCSIFDLPRANIGKFDRIWDRGALVAINPGDHDRYADIILSLLRKEFQYLVAVLSYDPTKHAGPPFYVPSAELKRLFGTKCSMQCLEEVDALEERHKAWGLDYLFEKLYLLTEK | not failed |
| MSLEALMNVQFFDHAHHKLKIRGLQSPVDVLTFEGREQLSTPFRYDIQFTSSDKAIAPESVLMQDGAFSLTAPPVQGMPVQTALRTLHGVITGFKHLSSSQDEARYEVRLEPRMALLTRSRQNAIYQNQTVPQIVEKILRERHQMRGQDFVFNLKSEYPAREQVMQYGEDDLTFVSRLLSEVGIWFRFATDARLKIEVIEFYDDQSGYERGLTLPLRHPSGLFDGETEAVWGLNTAYSVVEKSVSTRDYNYREATAEMTTGQHDATGGDNTTYGEAYHYADNFLQQGDKEAAESGAFYARIRHERYLNEQAILKGQSTSSLLMPGLEIKVQGDDAPAVFRKGVLITGVTTSAARDRSYELTFTAIPYSERYGYRPALIPRPVMAGTLPARVTSTVKNDIYAHIDKDGRYRVNLDFDRDTWKPGYESLWVRQSRPYAGDTYGLHLPLLAGTEVSIAFEEGNPDRPYIAGVKHDSAHTDHVTIQNEGHHHHHH | not failed |
| MSLEDRKNERLPSDLARRATAIIEMPDGVLVTASRGGRYNLPGGKANRGELRSQALIREIREETGLRINSMLYLFDHITPFNAHKVYLCIAQGQPKPQNEIERIALVSSPDTDMDLFVEGRAILRRYARLRNEETAKGEALRALLGLARYIAKVDEGHHHHHH | not failed |

Source: a protein production outcome set (Wang et al. 2014)
